Reference: patent US20050249719

Columns and labels:
[1] = tested on: T1, gliadin peptide PQPQLPYPQPQLP
T1 sequence: PQPQLPYPQPQLP

[2] = tested on: T2, 33-mer gliadin peptide LQLQPFPQPQLPYPQPQLPYPQPQLPYPQPQPF
T2 sequence: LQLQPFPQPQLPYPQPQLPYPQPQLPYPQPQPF

[3] = tested on: recombinant alpha2-gliadin

barley endoprotease EPB2, mature form, sequence (chain, as listed by the source): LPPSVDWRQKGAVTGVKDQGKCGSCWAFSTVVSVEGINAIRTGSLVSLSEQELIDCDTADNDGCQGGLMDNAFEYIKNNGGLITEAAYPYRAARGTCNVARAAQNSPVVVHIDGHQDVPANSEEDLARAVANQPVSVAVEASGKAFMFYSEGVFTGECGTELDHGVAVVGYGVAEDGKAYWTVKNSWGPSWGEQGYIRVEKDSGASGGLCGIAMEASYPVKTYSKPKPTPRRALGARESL

Substance | Kcat/KM [1] [mM^-1/s^-1] | competitive proteolysis of the 13-mer and the 33-mer [1] | rate of substrate (33-mer+32-mer) disappearance [2] | time to hydrolyze 10 µM of the 33-mer with 0.1 µM enzyme [2] | digestion of purified α2-gliadin under acidic conditions [3]
Myxococcus xanthus prolyl endopeptidase (recombinant, expressed in E. coli) | 548 | showed a clear preference for the 13-mer peptide | 0.43 µM/min (MX PEP) | – | –
Sphingomonas capsulata prolyl endopeptidase (recombinant, expressed in E. coli) | 492 | showed a clear preference for the 13-mer peptide | 0.07 µM/min (SC PEP) | required >1 hr to reach a comparable endpoint | –
barley endoprotease EPB2, mature form | – | – | – | – | efficiently digests purified α2-gliadin
